US20210101970A1 (Pfizer, published 2021)

Columns and labels:
human CXCR5 [1] = target: T1, human CXCR5 (human, UniProt P32302 1-372); test: cell-based or functional assay
T1 sequence: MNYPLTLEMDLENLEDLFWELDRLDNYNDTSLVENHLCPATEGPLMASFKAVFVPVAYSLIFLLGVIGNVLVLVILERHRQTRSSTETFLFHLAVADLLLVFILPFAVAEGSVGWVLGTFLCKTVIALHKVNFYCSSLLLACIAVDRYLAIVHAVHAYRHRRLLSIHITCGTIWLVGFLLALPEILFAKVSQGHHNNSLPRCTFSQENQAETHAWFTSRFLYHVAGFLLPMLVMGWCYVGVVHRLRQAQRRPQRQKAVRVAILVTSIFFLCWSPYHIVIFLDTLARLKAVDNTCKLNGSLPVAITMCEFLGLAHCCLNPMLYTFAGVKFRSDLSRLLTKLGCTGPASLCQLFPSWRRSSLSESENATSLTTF

cynomolgus monkey CXCR5 [2] = target: T2, cynomolgus monkey CXCR5 (cynomolgus monkey, UniProt P32302 1-372 (human entry)); test: cell-based or functional assay
T2 chain: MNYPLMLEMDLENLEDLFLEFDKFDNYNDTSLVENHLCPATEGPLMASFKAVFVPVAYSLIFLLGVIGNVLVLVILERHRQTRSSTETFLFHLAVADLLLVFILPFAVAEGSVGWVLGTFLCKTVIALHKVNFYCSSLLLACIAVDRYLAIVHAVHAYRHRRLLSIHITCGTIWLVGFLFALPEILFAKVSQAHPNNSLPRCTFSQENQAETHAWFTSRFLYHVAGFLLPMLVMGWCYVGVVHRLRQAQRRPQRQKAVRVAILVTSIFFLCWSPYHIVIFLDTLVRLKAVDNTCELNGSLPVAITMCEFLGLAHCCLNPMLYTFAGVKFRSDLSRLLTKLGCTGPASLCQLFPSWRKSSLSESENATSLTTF

human CXCR5 [3] = target: T1, human CXCR5; test: cell-based or functional assay; remark: listed apart in the source
human CXCR5 [4] = target: T1, human CXCR5; test: flow cytometry, human PBMC B cells
human CXCR5 [5] = target: T1, human CXCR5; test: flow cytometry, human PBMC B cells; remark: listed apart in the source
Protocol: (§1) The apparent affinity for cell surface CXCR5 of chimeric and humanized CXCR5 fucosylated and afucosylated antibodies was assessed. More specifically, to determine the apparent affinity of chimeric and humanized CXCR5 antibodies to CXCR5-expressing cells, cell binding experiments were performed on human and cynomolgus monkey peripheral blood mononuclear cells (PBMCs) and human tonsillar mononuclear cells (TMCs). The apparent affinity of CXCR5 mab binding to CXCR5+ cells (B cells, bona fide Tfh cells, and circulating Tfh-like cells) was calculated as the EC50 of equilibrium binding titration curves in which the geometric mean fluorescence intensity (gMFI) of the antigen binding population was quantified by flow cytometry.
(§2) Following isolation, PBMCs were plated at a density of 1.0×10⁵ cells per well and CD4+ TMCs were plated at a density of 2.0×10⁵ cells per well in isolation buffer (PBS containing 1% FBS and 1 mM EDTA) in 96 well U-bottom plates. The plates were then centrifuged at 1500 rpm for 5 minutes at room temperature. PBMCs and CD4+ TMCs were resuspended in Fluorescence-activated cell sorting (FACS) buffer (PBS containing 1% FBS) containing human crystallized fragment Fc block (2 μL per well; Biolegend) and 4-fold serial dilutions of the antibodies (11-point dilution series, beginning at 5000 ng/mL for PBMCs and 312.5 ng/mL for CD4+ TMCs) and incubated on ice for 2 hours. PBMCs and CD4+ TMCs were then washed with FACS buffer 3 times and resuspended in 50-100 μL of FACs buffer containing fluorescent-conjugated antibodies for staining lymphocyte subsets and a fluorescent-conjugated secondary antibody against human Ig to detect CXCR5 monoclonal antibodies (mAbs). After incubation for 30 minutes at 4° C., PBMCs and CD4+ TMCs were washed with FACS buffer 2 times and resuspended in 125 μL of 0.5% paraformaldehyde (PFA) in PBS. Plates were stored at 4° C. until analysis by flow cytometry (BD LSRFortessa™ Cell Analyzer, BD Biosciences, Franklin Lakes, N.J.).
(§3) The cell binding titration curves were generated by plotting the gMFI of the antigen binding population against the log of CXCR5 antibody concentration. EC₅₀ values were determined using GraphPad Prism® (version 6.0, GraphPad Software, Inc, San Diego, Calif.) nonlinear-regression curve fits and a sigmoidal log of agonist dose-response model, according to the following equation

human CXCR5 [6] = target: T1, human CXCR5; test: flow cytometry, human tonsil Tfh cells
Protocol: Following centrifugation, red blood cell lysis was performed on the pellet using an ammonium chloride lysis buffer. Platelets were removed using a low speed centrifugation (200×g) for 10 minutes in Phosphate-Buffered Saline (PBS)/2% FBS/2 mM Ethylenediaminetetraacetic acid (EDTA). CD4+ T cells were purified out of the TMC mixture using an EasySep™ Human CD4+ T Cell Enrichment Kit, according to the manufacturer's instructions ([…] Technologies, Vancouver, BC, Canada).
as §2, §3

cynomolgus monkey CXCR5 [7] = target: T2, cynomolgus monkey CXCR5; test: flow cytometry, cynomolgus PBMC B cells
Protocol: as §1, §2, §3

human CXCR5 [8] = target: T1, human CXCR5; test: flow cytometry, human PBMC Tfh-like cells
Protocol: as §1
(§4) Following isolation, PBMCs were plated at a density of 1.0×10⁵ cells per well and CD4+ TMCs were plated at a density of 2.0×10⁵ cells per well in isolation buffer (PBS containing 1% FBS and 1 mM EDTA) in 96 well U-bottom plates. The plates were then centrifuged at 1500 rpm for 5 minutes at room temperature. PBMCs and CD4+ TMCs were resuspended in Fluorescence-activated cell sorting (FACS) buffer (PBS containing 1% FBS) containing human crystallized fragment Fc block (2 μL per well; Biolegend) and 4-fold serial dilutions of the antibodies (11-point dilution series, beginning at 5000 ng/mL for PBMCs and 312.5 ng/mL for CD4+ TMCs) and incubated on ice for 2 hours. […]

cynomolgus monkey CXCR5 [9] = target: T2, cynomolgus monkey CXCR5; test: flow cytometry, cynomolgus PBMC Tfh-like cells
Protocol: as §1, §4

human CXCR5 [10] = target: T1, human CXCR5; test: flow cytometry, B cells from human PBMCs (FIG. 5); fucosylated
human CXCR5 [11] = target: T1, human CXCR5; test: cell-based or functional assay; remark: listed apart in the source
mouse CXCR5 [12] = target: T3, mouse CXCR5 (mouse, UniProt Q04683 1-374); test: flow cytometry on cells expressing mouse CXCR5
T3 construct: also called mCXCR5
T3 sequence: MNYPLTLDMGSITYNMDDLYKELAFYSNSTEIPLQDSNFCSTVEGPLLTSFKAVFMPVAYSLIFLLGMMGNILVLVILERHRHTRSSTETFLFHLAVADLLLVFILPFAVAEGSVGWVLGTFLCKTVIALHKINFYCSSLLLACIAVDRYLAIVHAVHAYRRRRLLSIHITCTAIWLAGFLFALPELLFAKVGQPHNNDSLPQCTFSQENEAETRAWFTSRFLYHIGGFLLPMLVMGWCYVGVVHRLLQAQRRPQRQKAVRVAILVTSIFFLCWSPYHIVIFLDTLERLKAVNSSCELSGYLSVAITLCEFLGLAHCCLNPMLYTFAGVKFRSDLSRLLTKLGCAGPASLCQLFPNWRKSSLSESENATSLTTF

human CXCR5 [13] = target: T1, human CXCR5; test: flow cytometry on Raji cells, gMFI titration
Protocol: The apparent affinity of antibody binding to Raji cells was calculated as the EC₅₀ of equilibrium binding titration curves in which the geometric mean fluorescence intensity (gMFI) of the antigen binding population was quantified by flow cytometry and the results are shown in Table 2.

human CXCR5 [14] = target: T1, human CXCR5; test: FACS on cells expressing the CXCR5 construct
mouse CXCR5 [15] = target: T3, mouse CXCR5; test: FACS on cells expressing the CXCR5 construct
XC251 = target: T4, XC251; test: FACS on cells expressing the CXCR5 construct
T4 construct: whole, on cells; also called hCXCR5-mL3

XC252 = target: T5, XC252; test: FACS on cells expressing the CXCR5 construct
T5 construct: whole, on cells; also called hCXCR5-mL2

XC253 = target: T6, XC253; test: FACS on cells expressing the CXCR5 construct
T6 construct: whole, on cells; also called hCXCR5-mN

XC254 = target: T7, XC254; test: FACS on cells expressing the CXCR5 construct
T7 construct: whole, on cells; also called hCXCR5-mL2-mL3

XC255 = target: T8, XC255; test: FACS on cells expressing the CXCR5 construct
T8 construct: whole, on cells; also called hCXCR5-mN-mL3

XC256 = target: T9, XC256; test: FACS on cells expressing the CXCR5 construct
T9 construct: whole, on cells; also called hCXCR5-mN-mL2

XC280 = target: T10, XC280 (human, UniProt P32302 2-372); test: flow cytometry on HEK-293T cells transiently expressing the FLAG-tagged mutein; ratio of gMFI of the antibody to gMFI of anti-FLAG PE
T10 construct: also called hCXCR5 W19K
T10 sequence: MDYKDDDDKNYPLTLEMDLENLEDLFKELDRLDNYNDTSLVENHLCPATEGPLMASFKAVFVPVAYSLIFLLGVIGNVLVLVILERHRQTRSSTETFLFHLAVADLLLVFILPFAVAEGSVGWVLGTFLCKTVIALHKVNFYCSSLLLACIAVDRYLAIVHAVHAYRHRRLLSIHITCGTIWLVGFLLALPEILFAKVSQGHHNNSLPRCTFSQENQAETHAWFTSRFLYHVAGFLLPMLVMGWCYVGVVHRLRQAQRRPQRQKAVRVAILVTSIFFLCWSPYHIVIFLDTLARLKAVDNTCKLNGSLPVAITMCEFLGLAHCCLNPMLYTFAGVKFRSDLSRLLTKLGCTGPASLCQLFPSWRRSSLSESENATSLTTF
Protocol: The cells were analyzed by flow cytometry using an Accuri (BD Biosciences Franklin Lakes, N.J.). The geometric mean fluorescence intensity (gMFI) was determined and the ratio for the gMFI of each CXCR5 antibody and anti-flag was calculated.

human CXCR5 [16] = target: T1, human CXCR5; test: flow cytometry, B cells from human PBMCs (FIG. 5); comparator 11A7

B1: Humanized 11G2 154/155 (antibody, human IgG1, kappa, V domains shown)
VH: EVQLVESGGGLVQPGGSLRLSCAASGFTFTDFYMSWVRQAPGKGLEWVGFIRNKANGYTTEYSASVKGRFTISRDNAKNSLYLQMNSLRAEDTAVYYCARVYGSTLHYWGQGTLVTVSS
VL: DIQMTQSPSSLSASVGDRVTITCRASESVEYHGTSLMHWYQQKPGKAPKLLIYAASNVESGVPSRFSGSGSGTDFTLTISSLQPEDFATYYCQQSRKVPWTFGQGTKVEIKR
notes: fucosylated human IgG1/kappa; also called h11G2 VL XC154/VH XC155
- ADCC Activity Average EC50, Human B Cells (human CXCR5 [1]): 0.254 nM
- ADCC Activity Average EC50, Human Tfh Cells (human CXCR5 [1]): 0.00077 nM
- ADCC Activity Average EC50, Human Tfh-like Cells (human CXCR5 [1]): 0.00798 nM
- ADCC Activity Average EC50, NHP B Cells (cynomolgus monkey CXCR5 [2]): 0.0391 nM
- % Inhibition CXCL13 (human CXCR5 [3]): 121%
- EC50, stimulation of CXCL13-inhibited cAMP production (human CXCR5 [3]): 0.753 nM
- fold greater affinity than 2C9 (human CXCR5 [4]): ≥ 10 fold
- fold greater affinity than 11A7 (human CXCR5 [4]): ≥ 100 fold
- fold higher affinity than 2C9 (human CXCR5 [4]): ~10 fold
- fold higher affinity than 11A7 (human CXCR5 [4]): ~100 fold
- EC50 (human CXCR5 [5]): 0.00708 nM
- EC50 (human CXCR5 [6]): 0.00825 nM
- EC50 (cynomolgus monkey CXCR5 [7]): 0.00413 nM
- EC50 (human CXCR5 [8]): 0.00592 nM
- EC50 (cynomolgus monkey CXCR5 [9]): 0.00565 nM
- EC50 (human CXCR5 [10]): 0.00963 nM

B2: 16D7 (reference antibody) (antibody, human IgG1, kappa, V domains shown)
VH: QVQLKESGPGLVAPSESLSITCTVSGFSLIDYGVNWIRQPPGKGLEWLGVIWGDGTTYYNPSLKSRLSISKDNSKSQVFLKVTSLTTDDTAMYYCARIVYWGQGTLVTVSA
VL: DIVMTQAAPSVAVTPGASVSISCRSSKSLLHSSGKTYLYWFLQRPGQSPQLLIYRLSSLASGVPDRFSGSGSGTAFTLRISRVEAEDVGVYYCMQHLEYPYTFGGGTKLEIKR
notes: fucosylated; also called S16D7
- Ca2+ flux IC50 (human CXCR5 [11]): 11.4 nM
- ADCC Activity Average EC50, Human B Cells (human CXCR5 [1]): 2.59 nM
- % Inhibition CXCL13 (human CXCR5 [3]): 102%
- EC50, stimulation of CXCL13-inhibited cAMP production (human CXCR5 [3]): 1.1 nM
- binding result (mouse CXCR5 [12]): no binding
- EC50 (human CXCR5 [13]): 0.65 nM
- GMFI (human CXCR5 [14]): 150000 GMFI
- GMFI (mouse CXCR5 [15]): 958 GMFI
- GMFI (XC251): 19900 GMFI
- GMFI (XC252): 27000 GMFI
- GMFI (XC253): 1260 GMFI
- GMFI (XC254): 16900 GMFI
- GMFI (XC255): 1340 GMFI
- GMFI (XC256): 1380 GMFI
- binding result (XC280): no binding (tested: 1 or 3 µg/ml (not on the sheet))

B3: 11A7 (reference antibody) (antibody, human IgG1, lambda, V domains shown)
VH: EVQLVESGGGLVQPGGSLRLSCAASGFTVSSNYMSWVRQAPGKGLEWVSVIYSGGSTYYADSVKGRFTISRHNSKNTLYLQMNSLRAEDTAVYYCARGYVVWGQGTLVTVSS
VL: QPVLTQPPSVSKDLRQTATLTCTGNSNNVGNQGATWLQQHQGHPPKLLSYKNNNRPSGISERFSASRSGNTASLTITGLQPEDEADYYCSAWDSSLSAWVFGGGTQLTVLG
notes: fucosylated
- ADCC Activity Average EC50, Human B Cells (human CXCR5 [1]): 0.00435 nM
- % Inhibition CXCL13 (human CXCR5 [3]): 106%
- EC50, stimulation of CXCL13-inhibited cAMP production (human CXCR5 [3]): 1.4 nM
- EC50 (human CXCR5 [5]): 0.564 nM
- binding result (mouse CXCR5 [12]): no binding
- EC50 (human CXCR5 [16]): 0.926 nM
- binding result (XC280): no binding (tested: 1 or 3 µg/ml (not on the sheet))
